Laboratory results: US20210355220A1

Tests used:
Assay in all cases: flow cytometry on transfected HEK293 cells, background control
[1] = target: hBTLA on HEK293 cells (human) (UniProt Q7Z6A9)
[2] = target: hPD1 on HEK293 cells (human) (UniProt Q15116)
[3] = target: hPDL1 on HEK293 cells (human) (UniProt Q9NZQ7)
[4] = target: hCD28 on HEK293 cells (human) (UniProt P10747)
[5] = target: hICOS on HEK293 cells (human) (UniProt Q9Y6W8)
[6] = target: human CTLA-4 expressed on cells (human) (UniProt P16410)
Sequence of human CTLA-4 expressed on cells (human) (P16410 36-223): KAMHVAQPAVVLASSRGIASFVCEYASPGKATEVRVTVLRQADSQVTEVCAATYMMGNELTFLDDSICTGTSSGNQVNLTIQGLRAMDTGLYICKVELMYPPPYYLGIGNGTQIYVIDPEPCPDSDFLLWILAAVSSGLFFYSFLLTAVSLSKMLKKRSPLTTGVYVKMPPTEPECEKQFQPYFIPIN

[7] = target: hPDL2 on HEK293 cells (human) (UniProt Q9BQ51)
Sequence of hPDL2 on HEK293 cells (human) (Q9BQ51 20-273): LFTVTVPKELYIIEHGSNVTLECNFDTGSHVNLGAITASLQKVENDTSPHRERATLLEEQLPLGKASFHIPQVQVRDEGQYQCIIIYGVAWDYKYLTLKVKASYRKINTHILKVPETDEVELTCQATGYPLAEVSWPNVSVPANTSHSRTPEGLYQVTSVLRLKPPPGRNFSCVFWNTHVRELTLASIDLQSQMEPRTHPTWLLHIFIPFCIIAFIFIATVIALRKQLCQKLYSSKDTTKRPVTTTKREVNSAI

Sequence of hICOS on HEK293 cells (human) (Q9Y6W8 21-199): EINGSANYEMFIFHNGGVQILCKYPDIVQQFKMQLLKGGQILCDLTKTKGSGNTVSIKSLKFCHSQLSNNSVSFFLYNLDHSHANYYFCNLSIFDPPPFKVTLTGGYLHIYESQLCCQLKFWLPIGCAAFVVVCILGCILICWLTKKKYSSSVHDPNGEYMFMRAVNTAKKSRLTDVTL
Sequence of hPD1 on HEK293 cells (human) (Q15116 25-288): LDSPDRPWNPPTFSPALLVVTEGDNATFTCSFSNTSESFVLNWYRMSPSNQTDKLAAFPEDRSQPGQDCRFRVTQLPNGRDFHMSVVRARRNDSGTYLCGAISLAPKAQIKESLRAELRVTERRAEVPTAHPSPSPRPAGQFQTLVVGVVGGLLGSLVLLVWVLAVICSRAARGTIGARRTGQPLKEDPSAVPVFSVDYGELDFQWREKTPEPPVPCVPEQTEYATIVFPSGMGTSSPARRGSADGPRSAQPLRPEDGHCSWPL
Sequence of hPDL1 on HEK293 cells (human) (Q9NZQ7 19-290): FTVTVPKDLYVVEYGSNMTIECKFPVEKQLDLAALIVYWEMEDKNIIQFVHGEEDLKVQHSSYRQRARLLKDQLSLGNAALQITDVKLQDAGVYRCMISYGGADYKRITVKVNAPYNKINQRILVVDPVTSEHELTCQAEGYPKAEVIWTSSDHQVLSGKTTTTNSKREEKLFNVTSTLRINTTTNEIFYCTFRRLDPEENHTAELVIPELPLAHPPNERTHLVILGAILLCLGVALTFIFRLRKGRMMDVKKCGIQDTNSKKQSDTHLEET

MFI [1]: 82 MFI
MFI [2]: 74 MFI
MFI [3]: 68 MFI
MFI [4]: 69 MFI
MFI [5]: 67 MFI
MFI [6]: 78 MFI
MFI [7]: 71 MFI
Substance: Secondary Antibody only (anti-human labeled secondary antibody)
